Measurements from article PMC4490372, “Architecture of TFIIIC and its role in RNA polymerase III pre-initiation complex assembly” (Nature Communications, 2015).
Where a chain is given by its changes, count along the chain named.

What was measured:
Assay in all cases: pull-down; 15 μg GST-tagged τ131 on Glutathione Sepharose 4B; 300 nM τ138 or Bdp1, or 1 μM Brf1–TBP; 50 mM Tris pH 7.5, 150 mM NaCl, 2 mM DTT, 0.1% Tween20; 4 °C, 4 h
Details in all cases: both partners purified
[1] = biological target: T1, GST-tagged τ131 (1–580), wild type (S. cerevisiae, UniProt P33339 1-580)
T1 construct: τ131 (Tfc4) of S. cerevisiae TFIIIC, residues 1-580 (extended N terminus and TPR array); also called GST-τ131 (1–580); longer τ131 protein; source: E. coli BL21 (DE3) Gold, purified (GST column, S200 SEC)
T1 sequence (looked up): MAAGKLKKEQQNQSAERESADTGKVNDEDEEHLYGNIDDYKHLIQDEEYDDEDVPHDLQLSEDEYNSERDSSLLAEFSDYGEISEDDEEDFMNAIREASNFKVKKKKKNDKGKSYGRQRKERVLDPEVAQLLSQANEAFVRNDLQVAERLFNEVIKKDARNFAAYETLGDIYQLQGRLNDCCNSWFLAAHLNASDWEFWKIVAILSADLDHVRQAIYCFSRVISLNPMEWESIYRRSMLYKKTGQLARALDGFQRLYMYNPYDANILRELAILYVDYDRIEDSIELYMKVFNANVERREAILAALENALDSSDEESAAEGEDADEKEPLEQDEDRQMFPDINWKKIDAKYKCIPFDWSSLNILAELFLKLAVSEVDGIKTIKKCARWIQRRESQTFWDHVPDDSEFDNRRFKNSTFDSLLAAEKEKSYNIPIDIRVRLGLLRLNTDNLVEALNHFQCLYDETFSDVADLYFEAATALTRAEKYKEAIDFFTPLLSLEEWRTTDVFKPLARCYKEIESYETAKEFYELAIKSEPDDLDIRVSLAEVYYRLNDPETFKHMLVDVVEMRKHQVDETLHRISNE

[2] = biological target: T2, GST-tagged τ131 (1–580) D468K (S. cerevisiae, UniProt P33339 1-580, D468K)
T2 construct: τ131 (Tfc4) of S. cerevisiae TFIIIC, residues 1-580, point mutant; also called D468K mutant of τ131 (1–580); source: E. coli BL21 (DE3) Gold, purified (GST column, S200 SEC)
T2 sequence (looked up): T1 sequence (looked up) with D468K

[3] = biological target: T3, GST-tagged τ131 (1–580) L469K (S. cerevisiae, UniProt P33339 1-580, L469K)
T3 construct: τ131 (Tfc4) of S. cerevisiae TFIIIC, residues 1-580, point mutant; also called L469K mutant of τ131 (1–580); source: E. coli BL21 (DE3) Gold, purified (GST column, S200 SEC)
T3 sequence (looked up): T1 sequence (looked up) with L469K

- binding result [1]: binds
- binding result [2]: binds
- binding result [3]: binds
B1: Brf1–TBP fusion protein Brf1 (1–382)-TBP (61–240)-Brf1 (439–596) (other, UniProt P29056 1-382, looked up)
chain: MPVCKNCHGTEFERDLSNANNDLVCKACGVVSEDNPIVSEVTFGETSAGAAVVQGSFIGAGQSHAAFGGSSALESREATLNNARRKLRAVSYALHIPEYITDAAFQWYKLALANNFVQGRRSQNVIASCLYVACRKEKTHHMLIDFSSRLQVSVYSIGATFLKMVKKLHITELPLADPSLFIQHFAEKLDLADKKIKVVKDAVKLAQRMSKDWMFEGRRPAGIAGACILLACRMNNLRRTHTEIVAVSHVAEETLQQRLNEFKNTKAAKLSVQKFRENDVEDGEARPPSFVKNRKKERKIKDSLDKEEMFQTSEEALNKNPILTQVLGEQELSSKEVLFYLKQFSERRARVVERIKATNGIDGENIYHEGSENETRKRKLSESGIVPTLQNIVATVTLGCRLDLKTVALHARNAEYNPKRFAAVIMRIREPKTTALIFASGKMVVTGAKSEDDSKLASRKYARIIQKIGFAAKFTDFKIQNIVGSCDVKFPIRLEGLAFSHGTFSSYEPELFPGLIYRMVKPKIVLLIFVSGKIVLTGAKQREEIYQAFEAIYPVLSEFRKMPRNLHLLPTTDTYLSKVSDDPDNLEDVDDEELNAHLLNEEASKLKERIWIGLNADFLLEQESKRLKQEADIATGNTSVKKKRTRRRNNTRSDEPTKTVDAAAAIGLMSDLQDKSGLHAALKAAEESGDFTTADSVKNMLQKASFSKKINYDAIDGLFR
notes: Brf1, subunit of TFIIIB, residues 1-382; TBP, subunit of TFIIIB, residues 61-240; Brf1, subunit of TFIIIB, residues 439-596; source: E. coli BL21 Star (DE3) pRARE, purified (Ni-NTA, HiTrap SP); not shown: His6, C-terminal, kept
